From patent US20250197473A1 come the findings set out here.

Like-named read-outs stand apart in the source and are kept apart here.

Common to all, as to experiment: ELISA
In assay [1] the target is CTLA-4.
Assay [2] concerns the target PD-1.
The target in assay [3] is CTLA-4. This is another data set of the same source.
Assay [4] concerns the target PD-1. The source holds these as a separate data set.

In turn, “B7.1/PD-L2 composition (a B7.1 domain linked to a PD-L2 domain plus an Fc domain) (Fc fusion)” returned a CLTA-4 Relative Binding in assay [1] of 0.548. In assay [2], this substance had a PD-1 Relative Binding of 0.
On to “PD-L2 domain only plus Fc construct (Fc fusion)”, for which the CLTA-4 Relative Binding in assay [3] was determined as 0.008. This substance also gave a PD-1 Relative Binding in assay [4] of 1.77.
For “PD-L2/B7.1 Dual Checkpoint (dual checkpoint inhibitor composition comprising, from the N-terminus to the C-terminus, a PD-L2 domain linked to a B7.1 domain plus a Fc domain) (Fc fusion)”, the CLTA-4 Relative Binding in assay [3] amounted to 1.65; in assay [1], 0.266. For the same substance, the PD-1 Relative Binding in assay [4] amounted to 3.37; in assay [2], 0.088.
For “B7.1 domain only plus Fc construct (Fc fusion)”, in that order: 3.26, 0.236, 0.004 and 0.
